{
  "source": "patent US20240034814A1",
  "about": "(JANUX THERAPEUTICS, published 2024)",
  "binders": {"B1": {"name": "Polypeptide complex PC3 (bispecific antibody)", "light": "DIQLTQSPSSLSASVGDRVSITCKASQDVSIAVAWYQQKPGKAPKLLIYSASYRYTGVPDRFSGSGSGTDFTLTISSLQPEDFAVYYCQQHYITPLTFGAGTKVEIKRTVAAPSVFIFPPSDEQLKSGTASVVCLLNNFYPREAKVQWKVDNALQSGNSQESVTEQDSKDSTYSLSSTLTLSKADYEKHKVYACEVTHQGLSSPVTKSFNRGEC", "heavy": "QTVVTQEPSLTVSPGGTVTLTCRSSTGAVTTSNYANWVQQKPGQAPRGLIGGTNKRAPGTPARFSGSLLGGKAALTLSGVQPEDEAEYYCALWYSNLWVFGGGTKLTVLGGGGSGGGGSGGGGSEVQLVESGGGLVQPGGSLKLSCAASGFTFNTYAMNWVRQAPGKGLEWVARIRSKYNNYATYYADSVKDRFTISRDDSKNTAYLQMNNLKTEDTAVYYCVRHGNFGNSYVSWFAYWGQGTLVTVSSGGGGSQVQLQQSGSELKKPGASVKVSCKASGYTFTNYGMNWVKQAPGQGLKWMGWINTYTGEPTYTDDFKGRFAFSLDTSVSTAYLQISSLKADDTAVYFCARGGFGSSYWYFDVWGQGSLVTVSSASTKGPSVFPLAPSSKSTSGGTAALGCLVKDYFPEPVTVSWNSGALTSGVHTFPAVLQSSGLYSLSSVVTVPSSSLGTQTYICNVNHKPSNTKVDKKVEPKSC", "notes": "TROP2 and CD3 targeting regions (anti-CD3 scFv fused to the Fab heavy chain); No mask and no HE-1"}, "B2": {"name": "Polypeptide complex PC4 (bispecific antibody)", "light": "GGVDFCKIYSWPVCHQGGGGSGGLSGRSDAGSPLGLAGSGGSDIQLTQSPSSLSASVGDRVSITCKASQDVSIAVAWYQQKPGKAPKLLIYSASYRYTGVPDRFSGSGSGTDFTLTISSLQPEDFAVYYCQQHYITPLTFGAGTKVEIKRTVAAPSVFIFPPSDEQLKSGTASVVCLLNNFYPREAKVQWKVDNALQSGNSQESVTEQDSKDSTYSLSSTLTLSKADYEKHKVYACEVTHQGLSSPVTKSFNRGEC", "heavy": "not shown"}, "B3": {"name": "HE-1 anti-albumin (VHH)", "VHH": "EVQLVESGGGLVQPGGSLRLSCAASGSTFYTAVMGWVRQAPGKGLEWVAAIRWTALTTSYADSVKGRFTISRDGAKTTLYLQMNSLRPEDTAVYYCAARGTLGLFTTADSYDYWGQGTLVTVSS", "notes": "Single domain antibody; also called half-life extending single domain antibody"}, "B4": {"name": "HE-2 (VHH)", "VHH": "B3 VHH with S110H", "notes": "also called (HE-2) Anti-albumin"}},
  "key": {"[1]": {"molecular_target": "T1, TROP2 on NCI-H292 tumor cells (UniProt P09758 27-274)", "T1 sequence (looked up)": "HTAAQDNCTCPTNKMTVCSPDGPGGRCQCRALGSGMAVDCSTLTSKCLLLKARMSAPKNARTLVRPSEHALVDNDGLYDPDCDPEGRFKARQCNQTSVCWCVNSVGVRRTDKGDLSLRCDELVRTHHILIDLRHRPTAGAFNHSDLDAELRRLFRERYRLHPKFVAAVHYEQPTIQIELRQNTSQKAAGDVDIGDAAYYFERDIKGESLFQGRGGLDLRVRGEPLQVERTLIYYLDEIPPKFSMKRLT", "experiment": "cell-based or functional assay"}, "[2]": {"molecular_target": "T1, TROP2 on NCI-H292 tumor cells", "experiment": "Trop2 binding ELISA (TROP2 as ELISA antigen, not on cells), polypeptide complex titrated, OD 450 nm"}, "[3]": {"molecular_target": "T2, human serum albumin (human, UniProt P02768 25-609)", "T2 construct": "also called HSA; HSA-biotin", "experiment": "ELISA, albumin coated plates, single domain antibody titrated, pH 5.5"}, "[4]": {"molecular_target": "T3, cynomolgus monkey serum albumin (cynomolgus monkey, UniProt A2V9Z4 25-608)", "T3 construct": "Coated on ELISA plates; also called cyno albumin", "T3 sequence (A2V9Z4 25-608 limits assumed)": "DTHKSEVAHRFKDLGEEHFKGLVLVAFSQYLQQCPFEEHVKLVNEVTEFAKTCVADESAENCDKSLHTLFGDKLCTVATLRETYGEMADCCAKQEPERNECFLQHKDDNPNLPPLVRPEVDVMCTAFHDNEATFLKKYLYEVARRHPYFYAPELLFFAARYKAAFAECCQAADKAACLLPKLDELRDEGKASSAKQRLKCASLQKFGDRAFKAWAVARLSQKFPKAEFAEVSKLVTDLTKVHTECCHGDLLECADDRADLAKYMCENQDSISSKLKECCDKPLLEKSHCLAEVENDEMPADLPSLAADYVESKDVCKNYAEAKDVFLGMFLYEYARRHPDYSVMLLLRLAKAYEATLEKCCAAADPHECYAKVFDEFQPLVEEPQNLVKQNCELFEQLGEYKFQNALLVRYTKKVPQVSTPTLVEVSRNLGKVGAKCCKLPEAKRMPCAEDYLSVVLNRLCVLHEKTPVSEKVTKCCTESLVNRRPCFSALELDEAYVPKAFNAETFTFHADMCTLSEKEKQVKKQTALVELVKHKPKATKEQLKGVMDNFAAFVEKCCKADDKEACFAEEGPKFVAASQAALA", "experiment": "ELISA, albumin coated plates, single domain antibody titrated, pH 5.5"}, "[5]": {"molecular_target": "T2, human serum albumin", "experiment": "ELISA, albumin coated plates, single domain antibody titrated, pH 7.4"}, "[6]": {"molecular_target": "T3, cynomolgus monkey serum albumin", "experiment": "ELISA, albumin coated plates, single domain antibody titrated, pH 7.4"}, "[7]": {"molecular_target": "T2, human serum albumin", "experiment": "BLI (Octet RED96), biotinylated HSA on streptavidin biosensors, HE-1 titrated 100-3.125 nM, pH 7.4, 1:1 fit"}, "[8]": {"molecular_target": "T4, Mouse Albumin (mouse, UniProt P07724)", "T4 construct": "coated on the ELISA plate; not described further; also called mouse serum albumin", "T4 sequence (P07724 25-608 limits assumed)": "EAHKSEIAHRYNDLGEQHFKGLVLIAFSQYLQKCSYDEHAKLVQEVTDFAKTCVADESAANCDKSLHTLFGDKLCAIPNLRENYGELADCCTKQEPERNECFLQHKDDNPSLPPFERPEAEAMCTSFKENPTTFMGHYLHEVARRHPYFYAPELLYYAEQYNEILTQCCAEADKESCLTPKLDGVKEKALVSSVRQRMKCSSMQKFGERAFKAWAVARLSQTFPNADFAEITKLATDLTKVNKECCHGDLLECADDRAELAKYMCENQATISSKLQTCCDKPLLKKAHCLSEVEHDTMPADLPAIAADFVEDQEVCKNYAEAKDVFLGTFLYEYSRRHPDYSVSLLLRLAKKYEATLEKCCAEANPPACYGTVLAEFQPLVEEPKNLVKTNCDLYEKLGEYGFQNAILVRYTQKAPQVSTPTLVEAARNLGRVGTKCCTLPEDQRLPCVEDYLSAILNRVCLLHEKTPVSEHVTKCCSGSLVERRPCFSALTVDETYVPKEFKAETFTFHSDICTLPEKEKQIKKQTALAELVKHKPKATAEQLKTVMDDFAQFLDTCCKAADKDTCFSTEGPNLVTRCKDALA", "experiment": "ELISA on an albumin coated plate, single domain antibody titrated, HRP secondary antibody, OD 450 nm"}, "[9]": {"molecular_target": "T3, cynomolgus monkey serum albumin", "experiment": "ELISA on an albumin coated plate, single domain antibody titrated, HRP secondary antibody, OD 450 nm"}, "[10]": {"molecular_target": "T2, human serum albumin", "experiment": "ELISA on an albumin coated plate, single domain antibody titrated, HRP secondary antibody, OD 450 nm"}, "[11]": {"molecular_target": "T2, human serum albumin", "experiment": "BLI (Octet RED96), biotinylated HSA on streptavidin biosensors, HE-1 titrated 100-3.125 nM, association and dissociation at pH 5.5, 1:1 fit"}, "[12]": {"molecular_target": "T2, human serum albumin", "experiment": "Octet, biotinylated human serum albumin on streptavidin biosensors, acidic buffer, association 1 (saturation using SDA)"}},
  "note": "Positions count from the first letter of the chain named.",
  "data": [
    {"binder": "B1", "values": [
      {"measurement": "H292 IC50 (pM), 72 hours, tumor cell killing with CD8+ T cells", "setting": "[1]", "value": 0.88, "unit": "pM"},
      {"measurement": "EC50 (read off the curve)", "setting": "[2]", "value": "~0.2", "unit": "nM"}
    ]},
    {"binder": "B2", "values": [
      {"measurement": "H292 IC50 (pM), 72 hours, tumor cell killing with CD8+ T cells", "setting": "[1]", "value": 4120, "unit": "pM"}
    ]},
    {"binder": "B3", "values": [
      {"measurement": "EC50", "setting": "[3]", "value": 0.9, "unit": "nM"},
      {"measurement": "EC50", "setting": "[4]", "value": 1.3, "unit": "nM"},
      {"measurement": "EC50", "setting": "[5]", "value": 1, "unit": "nM"},
      {"measurement": "EC50", "setting": "[6]", "value": 1.3, "unit": "nM"},
      {"measurement": "Kd", "setting": "[7]", "value": 5.98, "unit": "nM"},
      {"measurement": "koff", "setting": "[7]", "value": 0.00341, "unit": "s⁻¹"},
      {"measurement": "kon", "setting": "[7]", "value": 571000, "unit": "M⁻¹ s⁻¹"},
      {"measurement": "binding result", "setting": "[8]", "value": "binds"},
      {"measurement": "EC50 (read off the curve)", "setting": "[9]", "value": "~2", "unit": "nM"},
      {"measurement": "EC50 (read off the curve)", "setting": "[10]", "value": "~1", "unit": "nM"},
      {"measurement": "Kd", "setting": "[11]", "value": 4.19, "unit": "nM"},
      {"measurement": "koff", "setting": "[11]", "value": 0.00186, "unit": "s⁻¹"},
      {"measurement": "kon", "setting": "[11]", "value": 444000, "unit": "M⁻¹ s⁻¹"}
    ]},
    {"binder": "B4", "values": [
      {"measurement": "binding result", "setting": "[12]", "value": "binds"}
    ]}
  ]
}
